According to the supplement of paper PMC10567573:

B1: ZNF649 (parent)
chain: LVAHQRYHTGKTPFVCPECGQPCS

Variants of: B1
Assay: protein stability index of a GFP-peptide fusion (GPS, HEK-293T) (PSI 1-6); higher = more stable
Details: c terminus: a fixed tail appended
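Also: lentivirally expressed fusions sorted by FACS into six bins by GFP to DsRed ratio, PSI derived from sequencing read proportions per bin multiplied by bin number.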

Variant | protein stability index
FVAHQRYHTGKTPFVCPECGQPCS [L1F] | 2.57
CVAHQRYHTGKTPFVCPECGQPCS [L1C] | 4.67
DVAHQRYHTGKTPFVCPECGQPCS [L1D] | 3.6
RVAHQRYHTGKTPFVCPECGQPCS [L1R] | 3.63
AVAHQRYHTGKTPFVCPECGQPCS [L1A] | 3.76
EVAHQRYHTGKTPFVCPECGQPCS [L1E] | 4.06
HVAHQRYHTGKTPFVCPECGQPCS [L1H] | 3.48
YVAHQRYHTGKTPFVCPECGQPCS [L1Y] | 1.22
QVAHQRYHTGKTPFVCPECGQPCS [L1Q] | 3.87
GVAHQRYHTGKTPFVCPECGQPCS [L1G] | 3.67
SVAHQRYHTGKTPFVCPECGQPCS [L1S] | 4.24
VVAHQRYHTGKTPFVCPECGQPCS [L1V] | 3.35
MVAHQRYHTGKTPFVCPECGQPCS [L1M] | 3.25
KVAHQRYHTGKTPFVCPECGQPCS [L1K] | 3.65
IVAHQRYHTGKTPFVCPECGQPCS [L1I] | 2.95
TVAHQRYHTGKTPFVCPECGQPCS [L1T] | 3.93
NVAHQRYHTGKTPFVCPECGQPCS [L1N] | 4.24
PVAHQRYHTGKTPFVCPECGQPCS [L1P] | 4.28
WVAHQRYHTGKTPFVCPECGQPCS [L1W] | 2.46
LVAHQGYHTGKTPFVCPECGQPCS [R6G] | 3.86
LVAHQNYHTGKTPFVCPECGQPCS [R6N] | 3.37
LVAHQVYHTGKTPFVCPECGQPCS [R6V] | 2.98
LVAHQYYHTGKTPFVCPECGQPCS [R6Y] | 3.12
LVAHQLYHTGKTPFVCPECGQPCS [R6L] | 2.93

Variant | protein stability index
LVAHQQYHTGKTPFVCPECGQPCS [R6Q] | 3.6
LVAHQFYHTGKTPFVCPECGQPCS [R6F] | 2.69
LVAHQKYHTGKTPFVCPECGQPCS [R6K] | 3.44
LVAHQIYHTGKTPFVCPECGQPCS [R6I] | 3.12
LVAHQWYHTGKTPFVCPECGQPCS [R6W] | 3.1
LVAHQCYHTGKTPFVCPECGQPCS [R6C] | 4.33
LVAHQMYHTGKTPFVCPECGQPCS [R6M] | 3.19
LVAHQAYHTGKTPFVCPECGQPCS [R6A] | 3.46
LVAHQHYHTGKTPFVCPECGQPCS [R6H] | 4.1
LVAHQSYHTGKTPFVCPECGQPCS [R6S] | 3.96
LVAHQDYHTGKTPFVCPECGQPCS [R6D] | 3.58
LVAHQPYHTGKTPFVCPECGQPCS [R6P] | 3.65
LVAHQEYHTGKTPFVCPECGQPCS [R6E] | 3.74
LVAHQTYHTGKTPFVCPECGQPCS [R6T] | 3.48
LVACQRYHTGKTPFVCPECGQPCS [H4C] | 4.02
LVAKQRYHTGKTPFVCPECGQPCS [H4K] | 2.49
LVAPQRYHTGKTPFVCPECGQPCS [H4P] | 3.4
LVASQRYHTGKTPFVCPECGQPCS [H4S] | 2.87
LVADQRYHTGKTPFVCPECGQPCS [H4D] | 3.98
LVARQRYHTGKTPFVCPECGQPCS [H4R] | 2.77
LVAQQRYHTGKTPFVCPECGQPCS [H4Q] | 3.61
LVAFQRYHTGKTPFVCPECGQPCS [H4F] | 2.76
LVAEQRYHTGKTPFVCPECGQPCS [H4E] | 3.31
LVALQRYHTGKTPFVCPECGQPCS [H4L] | 1.81

Variant | protein stability index
LVAAQRYHTGKTPFVCPECGQPCS [H4A] | 3.02
LVAIQRYHTGKTPFVCPECGQPCS [H4I] | 2.26
LVAGQRYHTGKTPFVCPECGQPCS [H4G] | 3.42
LVAWQRYHTGKTPFVCPECGQPCS [H4W] | 2.72
LVAYQRYHTGKTPFVCPECGQPCS [H4Y] | 2.64
LVANQRYHTGKTPFVCPECGQPCS [H4N] | 3.33
LVATQRYHTGKTPFVCPECGQPCS [H4T] | 3.17
LVAMQRYHTGKTPFVCPECGQPCS [H4M] | 2.76
LVAVQRYHTGKTPFVCPECGQPCS [H4V] | 2.97
LVAHQRAHTGKTPFVCPECGQPCS [Y7A] | 3.83
LVAHQRVHTGKTPFVCPECGQPCS [Y7V] | 3.44
LVAHQRFHTGKTPFVCPECGQPCS [Y7F] | 3.2
LVAHQRHHTGKTPFVCPECGQPCS [Y7H] | 3.56
LVAHQRPHTGKTPFVCPECGQPCS [Y7P] | 4.04
LVAHQRQHTGKTPFVCPECGQPCS [Y7Q] | 4.14
LVAHQRSHTGKTPFVCPECGQPCS [Y7S] | 3.18
LVAHQRLHTGKTPFVCPECGQPCS [Y7L] | 2.93
LVAHQRTHTGKTPFVCPECGQPCS [Y7T] | 3.28
LVAHQREHTGKTPFVCPECGQPCS [Y7E] | 4.45
LVAHQRGHTGKTPFVCPECGQPCS [Y7G] | 3.68
LVAHQRMHTGKTPFVCPECGQPCS [Y7M] | 3.67
LVAHQRDHTGKTPFVCPECGQPCS [Y7D] | 4.17
LVAHQRKHTGKTPFVCPECGQPCS [Y7K] | 3.31
LVAHQRIHTGKTPFVCPECGQPCS [Y7I] | 3.21

Variant | protein stability index
LVAHQRNHTGKTPFVCPECGQPCS [Y7N] | 3.73
LVAHQRRHTGKTPFVCPECGQPCS [Y7R] | 2.75
LVAHQRWHTGKTPFVCPECGQPCS [Y7W] | 2.38
LVAHQRCHTGKTPFVCPECGQPCS [Y7C] | 2.59
LVAHRRYHTGKTPFVCPECGQPCS [Q5R] | 3.06
LVAHDRYHTGKTPFVCPECGQPCS [Q5D] | 3.74
LVAHMRYHTGKTPFVCPECGQPCS [Q5M] | 2.24
LVAHYRYHTGKTPFVCPECGQPCS [Q5Y] | 2.74
LVAHVRYHTGKTPFVCPECGQPCS [Q5V] | 1.89
LVAHLRYHTGKTPFVCPECGQPCS [Q5L] | 2.05
LVAHGRYHTGKTPFVCPECGQPCS [Q5G] | 2.98
LVAHIRYHTGKTPFVCPECGQPCS [Q5I] | 3.78
LVAHFRYHTGKTPFVCPECGQPCS [Q5F] | 1.95
LVAHARYHTGKTPFVCPECGQPCS [Q5A] | 3.22
LVAHWRYHTGKTPFVCPECGQPCS [Q5W] | 1.16
LVAHTRYHTGKTPFVCPECGQPCS [Q5T] | 3.07
LVAHCRYHTGKTPFVCPECGQPCS [Q5C] | 2.86
LVAHKRYHTGKTPFVCPECGQPCS [Q5K] | 3.03
LVAHERYHTGKTPFVCPECGQPCS [Q5E] | 4.17
LVAHSRYHTGKTPFVCPECGQPCS [Q5S] | 3.14
LVAHNRYHTGKTPFVCPECGQPCS [Q5N] | 3.15
LVAHPRYHTGKTPFVCPECGQPCS [Q5P] | 3.32
